# Results reported in the supplement of paper PMC10724198.
# ± gives the standard deviation of the averaged measurements.
# Experiments:
# [1] = system: Saccharomyces cerevisiae; assay: protein stability index of tFT-peptide fusion (C-terminal peptide) (PSI (0-1 scale)); higher = more stable (slower turnover); settings: genetic background: wild type; temperature: 30 C
# [2] = system: Saccharomyces cerevisiae; assay: as above
# Procedure: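 MPS profiling in S. cerevisiae of the tFT-X12 degron library: putative degron peptides plus stable controls, 12 aa, fused to the C-terminus of a sfGFP-mCherry timer. Cells are FACS-sorted into 8 mCherry/sfGFP bins and deep-sequenced. PSI runs from 0 (unstable) to 1 (stable). Backgrounds are wild type, das1Δ and doa10Δ at 30 °C, and wild type, das1Δ, cdc34-1 and cdc53-1 at 37 °C; 2-3 technical replicates each.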
# [3] = genetic background: cdc34-1, temperature: 37 C
# [4] = genetic background: cdc53-1, temperature: 37 C
# [5] = genetic background: das1 deletion, temperature: 30 C
# [6] = genetic background: das1 deletion, temperature: 37 C
# [7] = genetic background: doa10 deletion, temperature: 30 C
# [8] = genetic background: wild type, temperature: 30 C
# [9] = genetic background: wild type, temperature: 37 C
# 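Note: PSI is a weighted mean of sequencing reads over stability bins, variants kept only with over 10 reads, mCherry proximal and sfGFP distal, peptide attached via GGGS linker.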
Sequence,protein stability index [1],"protein stability index [2, 3]","protein stability index [2, 4]","protein stability index [2, 5]","protein stability index [2, 6]","protein stability index [2, 7]","protein stability index [2, 8]","protein stability index [2, 9]"
TPYIFVLACLHV,0.372 ± 0.0091,0.395 ± 0.0014,0.476 ± 0.0062,0.326 ± 0.013,0.5039 ± 0.0042,0.274 ± 0.013,0.309 ± 0.021,0.461 ± 0.0069
LLVVGPVRLVVH,0.262 ± 0.023,0.214 ± 0.019,0.259 ± 0.0027,0.201 ± 0.034,0.346 ± 0.017,0.168 ± 0.0078,0.18 ± 0.026,0.321 ± 0.012
YRKKIKNIWLRW,0.473 ± 0.041,0.442 ± 0.017,0.428 ± 0.026,0.475 ± 0.033,0.6017 ± 0.0025,0.444 ± 0.058,0.322 ± 0.033,0.535 ± 0.0073
PVKGTMIKAKNT,0.354 ± 0.068,0.659 ± 0.088,0.73 ± 0.027,0.607 ± 0.026,0.71 ± 0.0026,0.184 ± 0.017,0.193 ± 0.024,0.341 ± 0.043
SGFWVSVDVFFV,0.2434 ± 0.0016,0.0673 ± 0.026,0.171 ± 0.022,0.155 ± 0.03,0.32 ± 0.015,0.122 ± 0.012,0.136 ± 0.026,0.29 ± 0.0036
SVVYVIYCGGIL,0.427 ± 0.036,0.446 ± 0.0082,0.481 ± 0.075,0.31 ± 0.036,0.555 ± 0.019,0.29 ± 0.0048,0.336 ± 0.013,0.503 ± 0.036
LRMSLLVFLLFA,0.314 ± 0.054,0.312 ± 0.03,0.407 ± 0.033,0.261 ± 0.033,0.4419 ± 0.0016,0.249 ± 0.021,0.231 ± 0.025,0.399 ± 0.0072
LFFWFMYLRRLI,0.172 ± 0.033,0.252 ± 0.019,0.238 ± 0.0044,0.403 ± 0.041,0.524 ± 0.11,0.22 ± 0.0085,0.151 ± 0.01,0.164 ± 0.0084
PSPVPPPSSPSP,0.71 ± 0.012,0.682 ± 0.029,0.728 ± 0.027,0.67 ± 0.026,0.717 ± 0.022,0.674 ± 0.021,0.684 ± 0.029,0.7075 ± 0.0063
VYCLFLPLGVAF,0.27 ± 0.027,0.115 ± 0.038,0.175 ± 0.072,0.184 ± 0.02,0.248 ± 0.0082,0.146 ± 0.016,0.171 ± 0.022,0.207 ± 0.026
IVVVVRLSPILG,0.331 ± 0.034,0.293 ± 0.016,0.397 ± 0.099,0.27 ± 0.015,0.4272 ± 0.003,0.228 ± 0.013,0.274 ± 0.016,0.401 ± 0.011
PWLLHTPLSLVF,0.434 ± 0.0077,0.321 ± 0.032,0.356 ± 0.018,0.335 ± 0.017,0.403 ± 0.0063,0.3182 ± 0.00076,0.349 ± 0.0058,0.4 ± 0.0051
VVTFCCARVTKI,0.522 ± 0.043,0.665 ± 0.048,0.6997 ± 0.0057,0.622 ± 0.038,0.665 ± 0.01,0.585 ± 0.026,0.571 ± 0.025,0.651 ± 0.021
DDESLVGRWRKV,0.365 ± 0.11,0.647 ± 0.011,0.7263 ± 0.00098,0.6402 ± 0.0045,0.738 ± 0.011,0.25 ± 0.0057,0.313 ± 0.014,0.547 ± 0.019
LFSSFFVFRLLV,0.146 ± 0.011,0.322 ± 0.031,0.432 ± 0.039,0.455 ± 0.028,0.581 ± 0.0041,0.0949 ± 0.016,0.0904 ± 0.029,0.0847 ± 0.0039
SRFFSCCVFPSF,0.766 ± 0.017,0.704 ± 0.02,0.7941 ± 0.0034,0.67 ± 0.037,0.781 ± 0.016,0.6764 ± 0.0041,0.654 ± 0.0089,0.737 ± 0.023
KNGNVEILIKCT,0.4881 ± 0.0027,0.625 ± 0.081,0.6278 ± 0.0034,0.485 ± 0.018,0.631 ± 0.0084,0.377 ± 0.022,0.425 ± 0.034,0.58 ± 0.018
LFFCYRVFLLVF,0.185 ± 0.019,0.132 ± 0.01,0.152 ± 0.0027,0.199 ± 0.023,0.243 ± 0.006,0.121 ± 0.016,0.106 ± 0.026,0.1719 ± 0.00093
GVFISFFFVFRF,0.308 ± 0.013,0.154 ± 0.0055,0.173 ± 0.037,0.269 ± 0.035,0.373 ± 0.013,0.354 ± 0.017,0.237 ± 0.025,0.309 ± 0.033
